From paper PMC9351184, “Survey of the binding preferences of RNA-binding proteins to RNA editing events”

Experiments:
[1] = molecular target: hnRNPC dsRBD (Homo sapiens, UniProt P07910 16-57); experiment: EMSA; 1 uM labelled RNA, 3 uM protein, 10 ul, on ice 45 min; 6% PAGE in 0.5x TBE (gel pre-run at 4 C); binding buffer, salt and pH not stated (proteins dialyzed in 25 mM Tris-HCl pH 8.0, 150 mM NaCl; final elution from cation exchange/heparin up to 1 M NaCl, then SEC); conditions: protein: recombinant; tags: 10xHis (pSUMOH10), removed with TEV; label: 5' DY781
Chain of hnRNPC dsRBD (P07910 16-57): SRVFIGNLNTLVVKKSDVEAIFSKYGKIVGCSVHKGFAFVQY

[2] = molecular target: T1, ILF3 dsRBD (Homo sapiens, UniProt Q12906 398-590); experiment: as above; conditions: protein: recombinant; tags: N-terminal GST (pGood6p), removed with TEV; label: 5' DY781
T1 sequence: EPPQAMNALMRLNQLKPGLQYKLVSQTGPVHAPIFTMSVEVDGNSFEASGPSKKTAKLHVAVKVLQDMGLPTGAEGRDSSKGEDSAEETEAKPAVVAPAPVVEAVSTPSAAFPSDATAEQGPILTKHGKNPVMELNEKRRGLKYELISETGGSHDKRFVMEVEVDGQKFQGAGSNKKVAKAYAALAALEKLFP

B1: edited RNA (ssRNA)
RNA: AGUGGCUUAUGCCUGUGAUCCCAACAC
modifications: A-to-I editing site represented by G as printed (A/G); inosine not stated
[1]
  binding result: binds
[2]
  binding result: binds
